Assay results as given in publication PMC5773694.

B1: Arabidopsis caleosin 4 (CAL4, At1g70670), probable peroxygenase 4 (natural protein)
chain: MASSISTGVKFVPEEDNFLQRHVAFFDRNKDGIVYPSETFQGFRAIGCGYLLSAVASVFINIGLSSKTRPGKGFSIWFPIEVKNIHLAKHGSDSGVYDKDGRFVASKFEEIFTKHAHTHRDALTNEELKQLLKANKEPNDRKGWLAGYTEWKVLHYLCKDKNGLLHKDTVRAAYDGSLFEKLEKQRSSKTSKKHP
B2: Arabidopsis oleosin 1 (OLE1, At4g25140), oleosin 18.5 kDa (natural protein)
chain: MADTARGTHHDIIGRDQYPMMGRDRDQYQMSGRGSDYSKSRQIAKAATAVTAGGSLLVLSSLTLVGTVIALTVATPLLVIFSPILVPALITVALLITGFLSSGGFGIAAITVFSWIYKYATGEHPQGSDKLDSARMKLGSKAQDLKDRAQYYGQQHTGGEHDRDRTRGGQHTT

Molecular target: T1, Arabidopsis serine/threonine/tyrosine protein kinase (STYK, At2g24360) (Arabidopsis thaliana) (UniProt Q9ZQ31)
T1 sequence: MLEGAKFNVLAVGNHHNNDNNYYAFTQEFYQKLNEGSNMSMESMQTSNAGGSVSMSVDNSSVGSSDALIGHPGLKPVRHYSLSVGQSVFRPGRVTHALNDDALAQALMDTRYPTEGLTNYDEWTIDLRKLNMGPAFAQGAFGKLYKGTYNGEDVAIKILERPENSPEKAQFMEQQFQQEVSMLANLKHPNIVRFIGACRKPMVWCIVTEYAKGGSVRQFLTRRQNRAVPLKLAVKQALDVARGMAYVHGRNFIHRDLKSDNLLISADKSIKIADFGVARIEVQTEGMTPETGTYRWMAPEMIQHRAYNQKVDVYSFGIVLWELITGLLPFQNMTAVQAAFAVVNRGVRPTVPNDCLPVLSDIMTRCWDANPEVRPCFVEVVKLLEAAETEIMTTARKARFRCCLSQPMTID

Binder | Km of STYK for CAL4 as substrate, in vitro kinase assay [µM] | Km of STYK for OLE1 as substrate, in vitro kinase assay [µM]
B1 | 0.997 | –
B2 | – | 0.966
